Laboratory results from publication doi:10.1101/2024.06.27.601040 (bioRxiv, 2024).

Molecular target: MVP3-5 (residues 102-274 of human MVP), wild type (human, UniProt Q14764 102-274)
Test: SEC

MVP3-5 (residues 102-274 of human MVP), wild type, sequence (Q14764 102-274): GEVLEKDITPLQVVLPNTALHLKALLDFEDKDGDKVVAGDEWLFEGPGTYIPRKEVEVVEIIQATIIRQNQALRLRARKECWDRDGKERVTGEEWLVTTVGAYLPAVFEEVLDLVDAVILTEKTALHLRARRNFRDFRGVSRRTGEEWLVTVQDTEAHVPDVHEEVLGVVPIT

B1: MINT domain (residues 1562-1724 of human PARP4), wild type (domain or fragment)
chain: VCIQHWQDAVPWTELLSLQTEDGFWKLTPELGLILNLNTNGLHSFLKQKGIQSLGVKGRECLLDLIATMLVLQFIRTRLEKEGIVFKSLMKMDDASISRNIPWAFEAIKQASEWVRRTEGQYPSICPRLELGNDWDSATKQLLGLQPISTVSPLHRVLHYSQG
Does B1 bind?
Result: binds
